# Reference: PMC8677749
# Target: HBV core protein (Cp) dimer (Hepatitis B virus (strain NC_003977.1, subtype ayw?)) (UniProt P03146)
# Assay: NCP assembly, SEC-MALLS
# Settings: 20 mM HEPES pH 7.5, 250 mM NaCl, 5 mM DTT, up to 0.15 M GuHCl, ~20 C; 1 nM RNA, Cp dimer titrated to 1.2 uM
# HBV core protein (Cp) dimer (Hepatitis B virus (strain NC_003977.1, subtype ayw?)), sequence (P03146 whole entry): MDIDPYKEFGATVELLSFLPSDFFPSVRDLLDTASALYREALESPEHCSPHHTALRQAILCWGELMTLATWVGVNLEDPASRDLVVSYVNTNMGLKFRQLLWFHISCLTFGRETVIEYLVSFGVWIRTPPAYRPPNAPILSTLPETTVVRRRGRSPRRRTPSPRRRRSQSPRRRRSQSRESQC
substance,measurement,value
HBV JQ707375.1 gRNA (pgRNA) wild type,binding signal (% RNA yield after RNase A),81
